The substances below were run against human Ptch (SEQ ID NO:4), overexpressed on transfected human 293 embryonic kidney cells (human) (UniProt Q13635) (assay: Scatchard analysis of 125I-Shh displacement curves, 293 cells expressing Ptch).

**Q.** For “Dhh (SEQ ID NO:13) (from UniProt Q61488 23-198) (ligand)”, which Kd is on record?
**A.** Its Kd is 2.6 nM.

**Q.** “Ihh (SEQ ID NO:29) (from UniProt P97812 28-202) (ligand)” was tested. Which Kd did it give?
**A.** Its Kd is 1 nM.

**Q.** For “Shh (SEQ ID NO:14), 19kD amino terminal fragment of murine Shh (from UniProt Q62226 25-198) (ligand)”, which Kd is on record?
**A.** Its Kd is 1 nM.

From patent US6709838
